From publication doi:10.1101/411793 come the findings set out here.

The subject of this data set is DosR (phosphorylated) (Mycobacterium tuberculosis). In words: EMSA. (Mobility shift assays separate free from complexed probe on a gel.)

As to hspX promoter probe, the binding signal (fold inhibition of binding vs DMSO) amounted to 22.
